# Data as given in PMC13507205, “FAIMS-GPF XL-MS: crosslinking-mass spectrometry based on gas-phase fractionation” (Nature Communications, 2026).
# B1: MAT1 (natural protein, UniProt P51948 1-309, looked up)
# chain: MDDQGCPRCKTTKYRNPSLKLMVNVCGHTLCESCVDLLFVRGAGNCPECGTPLRKSNFRVQLFEDPTVDKEVEIRKKVLKIYNKREEDFPSLREYNDFLEEVEEIVFNLTNNVDLDNTKKKMEIYQKENKDVIQKNKLKLTREQEELEEALEVERQENEQRRLFIQKEEQLQQILKRKNKQAFLDELESSDLPVALLLAQHKDRSTQLEMQLEKPKPVKPVTFSTGIKMGQHISLAPIHKLEEALYEYQPLQIETYGPHVPELEMLGRLGYLNHVRAASPQDLAGGYTSSLACHRALQDAFSGLFWQPS
# notes: MAT1, subunit of the CAK heterotrimer; source: Sf21 cells, baculovirus, purified as the CAK complex (Strep-Tactin XT, eluted with biotin)
# Molecular target: T1, CDK7 kinase fused to a C-terminal Strep-tag II sequence (UniProt P50613 1-346)
# T1 construct: No cleavage of the tag is described; The theoretical mass of the trimer (113,879 Da with one phosphorylation) would fit whole chains; source: Sf21 cells, baculovirus, purified as the CAK complex (Strep-Tactin XT, eluted with biotin)
# Experiment: cross-linking; purified CAK complex (co-expressed, co-purified) at 0.7 mg/mL in 20 mM Hepes pH 8, 150 mM KCl, 1 mM EDTA, 1 mM DTT, 50 mM biotin; DSSO at 200 molar excess, 45 min, RT; three replicates; 4-CV FAIMS-GPF nLC-MS/MS; XLs kept if in at least 2 of 3 replicates
# Settings: both partners purified
# T1 sequence (P50613 whole entry, the tested form may be a part): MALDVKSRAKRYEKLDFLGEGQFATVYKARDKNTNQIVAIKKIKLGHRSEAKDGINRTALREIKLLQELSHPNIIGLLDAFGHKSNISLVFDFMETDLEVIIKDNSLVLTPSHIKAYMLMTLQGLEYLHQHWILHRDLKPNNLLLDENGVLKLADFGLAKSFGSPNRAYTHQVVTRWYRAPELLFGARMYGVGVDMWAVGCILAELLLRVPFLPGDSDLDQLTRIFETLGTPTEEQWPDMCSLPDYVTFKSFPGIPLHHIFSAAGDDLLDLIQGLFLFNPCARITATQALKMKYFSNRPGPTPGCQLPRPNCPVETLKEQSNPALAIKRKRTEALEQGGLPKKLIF
binder,measurement,value
B1,binding result,binds
